Results published in patent EP4585616A1, “ANTIBODY CAPABLE OF SPECIFICALLY BINDING TO ROR1, […] THEREOF, AND PREPARATION METHOD THEREFOR AND USE THEREOF” (Hefei Institutes of Physical Science, Chinese Academy of …, priority 2022, dated 2024).

Legend:
[1] = target: T1, human ROR1 on the surface of tumor cells (human, UniProt Q01973 30-937); assay: FACS, NCI-H226 cells
T1 construct: whole, on cells; also called ROR1 on the cell surface; tumor cell ROR1

[2] = target: T1, human ROR1 on the surface of tumor cells; assay: FACS, MDA-MB-231 cells
[3] = target: T2, Extracellular domain of human ROR1 protein (ROR1-ECD) (human, UniProt Q01973 30-403); assay: ELISA, plate-coated ROR1-ECD
T2 construct: Expressed in HEK293T cells; also called human ROR1-ECD; purified human ROR1 protein extracellular segment

[4] = target: T3, ROR1 extracellular segment sequence (including transmembrane) on CHO cells (human, UniProt Q01973 30-472); assay: FACS, CHO-ROR1 (extracellular segment) cells
T3 construct: Cloned into pCDNA3.1 and transfected into CHO cells; also called CHO-ROR1 (extracellular segment); CHO-ROR1

[5] = target: T4, ROR1 extracellular segment with Kringle domain removed on CHO cells (human, UniProt Q01973 30-472, limits assumed); assay: FACS, CHO-ROR1 (with Kringle domain removed) cells
T4 construct: Transfected into CHO cells; also called CHO-ROR1 (with Kringle domain removed)

[6] = target: T5, ROR1 extracellular segment with Frizzled domain removed on CHO cells (human, UniProt Q01973 30-472, limits assumed); assay: FACS, CHO-ROR1 (with Frizzled domain removed) cells
T5 construct: Transfected into CHO cells; also called CHO-ROR1 (with Frizzled domain removed)

[7] = target: T3, ROR1 extracellular segment sequence …; assay: FACS, ROR1 transferred onto CHO cell surface (summing up of Example 9)
[8] = test system: COLO-678 cells; assay: In vitro anti-proliferative activity (CCK8); format: cell-based; settings: Bowel cancer, read-out: Proliferation inhibition rate IC50±SD
Method: (§1) The cell lines used in this example, including MCF-7, MDA-MB-231, NCI-N87, NCI-H446, HT-29, HCC827, and HCC1187 cells, were purchased from Cobioer Biosciences, Nanjing, and Yuchi Biology, Shanghai, and cultured according to the corresponding instructions. The above cells in logarithmic growth phase were inoculated into 96-well cell culture plates at a density of 250 to 1500 cells per well (depending on the growth rate of different cells) at 150 µL/well, and cultured at 37°C, 5% CO2 for about 3 to 5 hours. Then, mAb001c-vcMMAE at different concentrations were added, each drug concentration in 2 to 4 replicates, as well as the corresponding vehicle control and blank control wells. After 5 to 6 days of action (depending on the cell growth rate, to ensure a sufficient number of cell divisions), the culture medium was removed and CCK8 reaction solution (purchased from MCE, cat# HY-K0301) was added at 100 µL/well. The reaction was carried out at 37°C until the expected color depth. The cell viability (OD450 nm) of each group was measured, and the cell survival rate was calculated according to the following formula: survival rate = (OD drug-OD blank)/(OD control-OD blank) × 100%. The above data were analyzed by GraphPad Prism 5 software, and the IC50 values of the above ROR1 antibody-drug conjugates for different cell lines were calculated.
(§2) The cell lines used in this example, including breast cancer cell lines MCF-7, SK-BR-3, MDA-MB-231, and HCC1187, colorectal cancer cell lines HT-29, SK-CO-1, and COLO-678, lung cancer cell lines HCC827, and H446, ovarian cancer cell line PA-1, gastric cancer cell line NCI-N87, were purchased from Cobioer Biosciences, Nanjing, and Yuchi Biology, Shanghai, and cultured according to the corresponding instructions. The CCK8 method was used to determine the in vitro killing activity of Hu001-2-MMAE, Hu001-3-MMAE, Hu005-44-MMAE, and Hu005-46-MMAE against various cancer cells, as well as UC961-MMAE as a positive reference. The implementation method was referred to Example 13.

[9] = test system: HCC1187 cells; assay: In vitro anti-proliferative activity (CCK8); format: cell-based; settings: Breast cancer, read-out: Proliferation inhibition rate IC50±SD
Method: as §1, §2

[10] = test system: HCC827 cells; assay: In vitro anti-proliferative activity (CCK8); format: cell-based; settings: Lung cancer, read-out: Proliferation inhibition rate IC50±SD
Method: as §1, §2

[11] = test system: HT-29 cells; assay: In vitro anti-proliferative activity (CCK8); format: cell-based; settings: Bowel cancer, read-out: Proliferation inhibition rate IC50±SD
Method: as §1, §2

[12] = test system: MCF-7 cells; assay: In vitro anti-proliferative activity (CCK8); format: cell-based; settings: Breast cancer, read-out: Proliferation inhibition rate IC50±SD
Method: as §1, §2

[13] = test system: MDA-MB-231 cells; assay: In vitro anti-proliferative activity (CCK8); format: cell-based; settings: Breast cancer, read-out: Proliferation inhibition rate IC50±SD
Method: as §1, §2

[14] = test system: NCI-H446 cells; assay: In vitro anti-proliferative activity (CCK8); format: cell-based; settings: Lung cancer, read-out: Proliferation inhibition rate IC50±SD
Method: as §1, §2

[15] = test system: NCI-N87 cells; assay: In vitro anti-proliferative activity (CCK8); format: cell-based; settings: Gastric cancer, read-out: Proliferation inhibition rate IC50±SD
Method: as §1, §2

[16] = test system: PA-1 cells; assay: In vitro anti-proliferative activity (CCK8); format: cell-based; settings: Ovarian cancer, read-out: Proliferation inhibition rate IC50±SD
Method: as §1, §2

[17] = test system: SK-BR-3 cells; assay: In vitro anti-proliferative activity (CCK8); format: cell-based; settings: Breast cancer, read-out: Proliferation inhibition rate IC50±SD
Method: as §1, §2

[18] = test system: SK-CO-1 cells; assay: In vitro anti-proliferative activity (CCK8); format: cell-based; settings: Bowel cancer, read-out: Proliferation inhibition rate IC50±SD
Method: as §1, §2

[19] = test system: HCC1187 tumors; assay: In vivo antitumor activity, subcutaneous tumor model; set-up: species or system immunodeficient mice (NCG or Balb/c-nude); settings: for Tumor inhibition rate (%): day 21
Method: (§3) 200 µL of cell matrix gel suspension containing 5 × 10^6 MDA-MB-231, 1 × 10^7 HCC1187, 1 × 10^7 PA-1, or 5 × 10^6 NCI-N87 was inoculated subcutaneously on the back of immunodeficient mice (NCG or Balb/c-nude). When the tumor volume grew to 100 to 300 mm3, the mice were randomly divided into groups (n=8 to 10) according to the tumor volume and nude mouse weight. The mice were dosed at doses of 5 mg/kg and 2.5 mg/kg once a week through the tail vein for a total of 3 weeks, as well as a group with PBS set as a negative control. The tumor volume and nude mouse weight were measured and recorded 2 to 3 times a week to plot the tumor growth curve. The formula for calculating tumor volume (V) is: V=1/2×a×b2, where a and b represent the length and width of the tumor, respectively.

[20] = test system: NCI-N87 tumors; assay: as above; set-up: species or system immunodeficient mice (NCG or Balb/c-nude); settings: for Tumor inhibition rate (%): day 21
Method: as §3

[21] = test system: PA-1 tumors; assay: as above; set-up: species or system immunodeficient mice (NCG or Balb/c-nude); settings: PA-1 model; for Tumor inhibition rate (%): day 28
Method: as §3

[22] = target: T6, ROR1 extracellular segment with Ig-like domain removed on CHO cells (human, UniProt Q01973 30-472, limits assumed); assay: FACS, CHO-ROR1 (with Ig-like domain removed) cells
T6 construct: Transfected into CHO cells; also called CHO-ROR1 (with Ig-like domain removed)

[23] = test system: MDA-MB-231 tumors; assay: In vivo antitumor activity, subcutaneous tumor model; set-up: species or system immunodeficient mice (NCG or Balb/c-nude); settings: 5 mg/kg once a week, tail vein, 3 weeks, result in words
Method: as §3, with “5×10^6 MDA-MB-231 and HT-29 were” for “5 × 10^6 MDA-MB-231, 1 × 10^7 HCC1187, 1 × 10^7 PA-1, or 5 × 10^6 NCI-N87 was”, “200 mm^3,” for “300 mm3,”, “(n=10)” for “(n=8 to 10)”, “V=1/2×a×b^2,” for “V=1/2×a×b2,”
as §3, with “The formula for calculating tumor volume (V) is: V=1/2×a×b2, where a and b represent the length and width of the tumor, respectively.” left out

[24] = test system: HT-29 tumors; assay: as above; set-up: species or system immunodeficient mice (NCG or Balb/c-nude); settings: 5 mg/kg and 2.5 mg/kg once a week, tail vein, 3 weeks, result in words
Method: as §3, with “5×10^6 MDA-MB-231 and HT-29 were” for “5 × 10^6 MDA-MB-231, 1 × 10^7 HCC1187, 1 × 10^7 PA-1, or 5 × 10^6 NCI-N87 was”, “200 mm^3,” for “300 mm3,”, “(n=10)” for “(n=8 to 10)”, “V=1/2×a×b^2,” for “V=1/2×a×b2,”

[25] = 2.5mg/kg once a week x3, tail vein
[26] = 5mg/kg once a week x3, tail vein

T1 sequence (Q01973 30-937): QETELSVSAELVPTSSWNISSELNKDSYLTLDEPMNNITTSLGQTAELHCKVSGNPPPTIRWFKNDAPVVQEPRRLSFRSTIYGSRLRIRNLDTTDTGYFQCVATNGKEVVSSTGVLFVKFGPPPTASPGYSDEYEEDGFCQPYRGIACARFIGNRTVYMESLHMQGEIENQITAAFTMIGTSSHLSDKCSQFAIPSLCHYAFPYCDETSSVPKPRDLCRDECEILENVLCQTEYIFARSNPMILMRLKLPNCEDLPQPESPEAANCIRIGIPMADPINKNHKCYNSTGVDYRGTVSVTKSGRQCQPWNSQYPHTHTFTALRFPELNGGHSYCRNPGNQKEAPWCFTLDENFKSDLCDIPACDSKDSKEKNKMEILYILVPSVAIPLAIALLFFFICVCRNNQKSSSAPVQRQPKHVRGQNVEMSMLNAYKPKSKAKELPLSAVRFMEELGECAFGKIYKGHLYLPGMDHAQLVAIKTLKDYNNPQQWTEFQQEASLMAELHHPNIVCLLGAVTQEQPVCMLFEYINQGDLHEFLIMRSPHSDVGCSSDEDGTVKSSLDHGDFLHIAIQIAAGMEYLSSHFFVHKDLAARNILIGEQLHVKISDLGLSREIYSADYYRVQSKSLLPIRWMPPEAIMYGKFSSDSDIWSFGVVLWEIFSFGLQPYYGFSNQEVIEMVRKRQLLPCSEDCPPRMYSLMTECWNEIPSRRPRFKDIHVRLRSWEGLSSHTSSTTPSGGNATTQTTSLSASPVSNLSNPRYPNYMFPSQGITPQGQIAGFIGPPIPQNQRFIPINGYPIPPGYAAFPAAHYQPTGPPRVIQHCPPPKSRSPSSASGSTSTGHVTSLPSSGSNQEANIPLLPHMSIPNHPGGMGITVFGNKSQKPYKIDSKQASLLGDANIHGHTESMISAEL
T2 sequence (Q01973 other isoform, or with tags, fused parts or gaps): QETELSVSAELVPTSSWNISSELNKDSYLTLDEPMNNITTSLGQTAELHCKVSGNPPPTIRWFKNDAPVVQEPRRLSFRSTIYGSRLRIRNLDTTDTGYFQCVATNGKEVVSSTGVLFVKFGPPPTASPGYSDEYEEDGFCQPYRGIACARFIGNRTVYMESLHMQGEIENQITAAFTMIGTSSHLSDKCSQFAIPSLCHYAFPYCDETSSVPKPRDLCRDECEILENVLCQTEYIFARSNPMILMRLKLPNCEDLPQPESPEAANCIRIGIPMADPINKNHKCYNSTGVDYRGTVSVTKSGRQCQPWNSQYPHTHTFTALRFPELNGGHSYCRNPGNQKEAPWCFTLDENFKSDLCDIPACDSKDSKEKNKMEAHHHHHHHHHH
T5 sequence (Q01973 other isoform, or with tags, fused parts or gaps limits assumed): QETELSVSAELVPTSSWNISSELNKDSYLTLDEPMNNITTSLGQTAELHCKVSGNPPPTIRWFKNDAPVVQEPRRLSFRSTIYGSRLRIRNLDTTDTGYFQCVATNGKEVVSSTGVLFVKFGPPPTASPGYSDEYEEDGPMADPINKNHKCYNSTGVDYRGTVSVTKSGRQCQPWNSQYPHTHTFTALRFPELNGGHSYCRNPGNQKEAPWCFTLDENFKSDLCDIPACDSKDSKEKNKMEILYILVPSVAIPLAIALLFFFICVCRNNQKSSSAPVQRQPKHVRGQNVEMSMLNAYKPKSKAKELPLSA
T3 sequence (Q01973 30-472 limits assumed): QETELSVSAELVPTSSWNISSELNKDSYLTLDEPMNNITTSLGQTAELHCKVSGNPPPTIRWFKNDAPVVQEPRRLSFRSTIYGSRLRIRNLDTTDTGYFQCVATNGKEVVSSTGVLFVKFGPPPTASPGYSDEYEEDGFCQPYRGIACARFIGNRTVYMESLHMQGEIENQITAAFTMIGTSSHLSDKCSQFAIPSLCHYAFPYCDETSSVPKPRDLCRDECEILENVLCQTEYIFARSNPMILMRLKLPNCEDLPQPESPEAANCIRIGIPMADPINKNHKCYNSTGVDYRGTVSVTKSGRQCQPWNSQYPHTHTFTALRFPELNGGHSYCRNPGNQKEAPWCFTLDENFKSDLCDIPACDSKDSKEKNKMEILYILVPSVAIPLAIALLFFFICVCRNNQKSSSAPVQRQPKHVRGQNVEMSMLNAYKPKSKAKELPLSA
T4 sequence (Q01973 other isoform, or with tags, fused parts or gaps limits assumed): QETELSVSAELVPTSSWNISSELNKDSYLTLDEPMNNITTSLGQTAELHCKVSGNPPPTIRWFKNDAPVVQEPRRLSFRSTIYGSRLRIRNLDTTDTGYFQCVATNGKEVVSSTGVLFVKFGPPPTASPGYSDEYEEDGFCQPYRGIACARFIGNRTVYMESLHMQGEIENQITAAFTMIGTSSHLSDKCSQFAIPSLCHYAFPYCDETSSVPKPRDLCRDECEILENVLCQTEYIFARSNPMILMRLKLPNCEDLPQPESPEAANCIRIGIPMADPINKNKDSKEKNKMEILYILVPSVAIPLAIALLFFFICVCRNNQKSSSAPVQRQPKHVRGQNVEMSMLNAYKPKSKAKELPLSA
T6 sequence (Q01973 other isoform, or with tags, fused parts or gaps limits assumed): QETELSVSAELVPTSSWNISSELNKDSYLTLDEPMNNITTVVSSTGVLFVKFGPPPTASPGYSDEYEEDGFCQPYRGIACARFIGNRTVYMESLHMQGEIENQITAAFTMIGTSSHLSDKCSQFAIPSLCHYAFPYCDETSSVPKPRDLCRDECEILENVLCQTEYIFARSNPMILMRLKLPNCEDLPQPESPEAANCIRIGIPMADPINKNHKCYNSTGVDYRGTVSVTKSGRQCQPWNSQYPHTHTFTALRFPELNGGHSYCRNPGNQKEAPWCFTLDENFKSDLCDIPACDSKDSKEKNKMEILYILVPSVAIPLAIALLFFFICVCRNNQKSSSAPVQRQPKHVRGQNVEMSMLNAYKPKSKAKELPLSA

B1: mAb005c (antibody, V domains shown)
VH: EVQLVESGGGLVKPGGSLKLSCAASGFTFNSYAMSWVRQTPEKRLEWVATISDGGSYTYYPDNEKGRFTISRDNAKNNLYLQMSHLKSEDTAIYYCVRGGYYYNLYAMDYWGQGTSVTVSS
VL: DIVLTQSPASLAVSLGQRAIISCKASQSVSFPGTSLMHWYQQKPGQQPKLLIYRASNLEAGVPTRFSGSGSRTDFTLNIHPVEEDDTATYYCQQSREYPWTFGGGTQLEIK
notes: Human-mouse chimeric
- EC50 [1]: 0.18 nM
- EC50 [2]: 0.24 nM
- EC50 [3]: 0.009 nM
- EC50 [4]: 0.57 nM
- EC50 [5]: 0.91 nM
- EC50 [6]: 1.02 nM
- EC50 [7]: < 2 nM

B2: UC961-MMAE: UC961 coupled with vcMMAE, prepared as a positive reference, average DAR about 3.95 (conjugate)
VH: QVQLQESGPGLVKPSQTLSLTCTVSGYAFTAYNIHWVRQAPGQGLEWMGSFDPYDGGSSYNQKFKDRLTISKDTSKNQVVLTMTNMDPVDTATYYCARGWYYFDYWGHGTLVTVSS
VL: DIVMTQTPLSLPVTPGEPASISCRASKSISKYLAWYQQKPGQAPRLLIYSGSTLQSGIPPRFSGSGYGTDFTLTINNIESEDAAYYFCQQHDESPYTFGEGTKVEIK
- IC50 [8]: 19.1 ± 0.78 nM
- IC50 [9]: 3 ± 1.5 nM
- IC50 [10]: 45.3 ± 25.7 nM
- IC50 [11]: 24.6 ± 1.04 nM
- IC50 [12]: > 100 nM
- IC50 [13]: 13.5 ± 3.61 nM
- IC50 [14]: 11.6 ± 2.52 nM
- IC50 [15]: 11.2 ± 2.47 nM
- IC50 [16]: 3.35 ± 0.12 nM
- IC50 [17]: > 100 nM
- IC50 [18]: 5.75 ± 2.46 nM
- Tumor volume ± SE (mm^3) on day 21th of administration [19, 25]: 2576.56±461.28 mm^3
- Tumor inhibition rate (%) ([19]; 2.5mg/kg): 15.18%
- Tumor volume ± SE (mm^3) on day 21th of administration [19, 26]: 407.09±69.85 mm^3
- Tumor inhibition rate (%) ([19]; 5mg/kg): 86.60%
- Tumor volume ± SE (mm^3) on day 21th of administration [20, 25]: 2010.44±266.07 mm^3
- Tumor inhibition rate (%) ([20]; 2.5mg/kg): 19.87%
- Tumor volume ± SE (mm^3) on day 21th of administration [20, 26]: 1171.18±130.32 mm^3
- Tumor inhibition rate (%) ([20]; 5mg/kg): 53.32%
- Tumor volume ± SE (mm^3) on day 28th of administration [21, 25]: 1032.13±123.29 mm^3
- Tumor inhibition rate (%) ([21]; 2.5mg/kg): 32.09%
- Tumor volume ± SE (mm^3) on day 28th of administration [21, 26]: 44.67±3.04 mm^3
- Tumor inhibition rate (%) ([21]; 5mg/kg): 97.06%

B3: mAb001c (antibody, V domains shown)
VH: EVRLQQSGPVLVKPGASVKMSCKASGYTFTDYNLHWVKQSHRQSLEWIGYINPNHDGTSYNQKFQGKATLTVDRSSSTAYMEFRSLTSEDSAVYYCARRVRTGTGLDDWGQGTTLTVSS
VL: DVLMTQSPLSLPVSLGDQASISCRSSHNIVHTNGNTYLEWYLQKPGQSPKLLIYKVSNRFSGVPDRFSGSGSGTYFTLTISRVEAEDLGVYYCFQGSRFPYTFGGGTKLEIK
notes: Human-mouse chimeric; also called human-mouse chimeric antibody mAb001c
- EC50 [1]: 0.11 nM
- EC50 [2]: 0.15 nM
- EC50 [3]: 0.012 nM
- EC50 [4]: 0.32 nM
- EC50 [22]: 0.36 nM
- EC50 [5]: 0.38 nM
- EC50 [6]: 0.85 nM
- EC50 [7]: < 2 nM

B4: mAb001c-vcMMAE: antibody conjugate of chimeric antibody mAb001c coupled with vcMMAE, average DAR about 3.81 (conjugate)
VH: EVRLQQSGPVLVKPGASVKMSCKASGYTFTDYNLHWVKQSHRQSLEWIGYINPNHDGTSYNQKFQGKATLTVDRSSSTAYMEFRSLTSEDSAVYYCARRVRTGTGLDDWGQGTTLTVSS
VL: DVLMTQSPLSLPVSLGDQASISCRSSHNIVHTNGNTYLEWYLQKPGQSPKLLIYKVSNRFSGVPDRFSGSGSGTYFTLTISRVEAEDLGVYYCFQGSRFPYTFGGGTKLEIK
- inhibition of the growth of MDA-MB-231 tumors [23]: completely inhibit
- inhibition of the growth of HT-29 tumors [24]: significantly and dose-dependently inhibited

B5: mAb004c (antibody, V domains shown)
VH: EVQLVESGGGLVQPKGSLKLSCAASGFTFNTYAMHWVRQAPGKGLEWVARIRSKSSNFATYYADSVRDRFTISRDDSQSMLYLQMNNLKTEDTAMYYCVRGYGPSYFSLDYWGQGTSVTVSS
VL: DVVMTQTPLSLPVSLGDQASISCRSSQSLVHSNGNTYLHWYLQKPGQSPKLLIYKVSNRFSGVPDRFSGSGSGTDFTLKINRVEAEDLGVYFCSQSTHAIYTFGGGTKLEIK
notes: Human-mouse chimeric
- EC50 [1]: 0.46 nM
- EC50 [2]: 0.4 nM
- EC50 [3]: 0.012 nM
- EC50 [4]: 0.32 nM
- EC50 [22]: 0.35 nM
- EC50 [5]: 0.84 nM
- EC50 [6]: 1.37 nM
- EC50 [7]: < 2 nM
